# Results published in publication PMC2440601.
# Assays:
# purified protein [1] = substrate: CC(=O)Oc1ccc([N+](=O)[O-])cc1; experiment: purified protein
# purified protein [2] = substrate: CC=O; experiment: purified protein; format: biochemical, Homo sapiens; settings: NAD+
Protein,Km (purified protein [1]),Vmax (purified protein [1]),Km (purified protein [2]),Vmax (purified protein [2])
ALDH2 (mitochondrial aldehyde dehydrogenase) (Homo sapiens) (protein) SAAATQAVPAPNQQPEVFCNQIFINNEWHDAVSRKTFPTVNPSTGEVICQVAEGDKEDVDKAVKAARAAFQLGSPWRRMDASHRGRLLNRLADLIERDRTYLAALETLDNGKPYVISYLVDLDMVLKCLRYYAGWADKYHGKTIPIDGDFFSYTRHEPVGVCGQIIPWNFPLLMQAWKLGPALATGNVVVMKVAEQTPLTALYVANLIKEAGFPPGVVNIVPGFGPTAGAAIASHEDVDKVAFTGSTEIGRVIQVAAGSSNLKRVTLELGGKSPNIIMSDADMDWAVEQAHFALFFNQGQCCCAGSRTFVQEDIYDEFVERSVARAKSRVVGNPFDSKTEQGPQVDETQFKKILGYINTGKQEGAKLLCGGGIAADRGYFIQPTVFGDVQDGMTIAKEEIFGPVMQILKFKTIEEVVGRANNSTYGLAAAVFTKDLDKANYLSQALQAGTVWVNCYDVFGAQSPFGGYKMSGSGRELGEYGLQAYTEVKTVTVKVPQKNS,0.18 ± 0.01 µM,0.21 µmol/min/mg,0.33 ± 0.005 µM,4 ± 0.03 µmol/min/mg
"ALDH1 (cytosolic aldehyde dehydrogenase, ALDH1A1) (Homo sapiens) (protein) SSSGTPDLPVLLTDLKIQYTKIFINNEWHDSVSGKKFPVFNPATEEELCQVEEGDKEDVDKAVKAARQAFQIGSPWRTMDASERGRLLYKLADLIERDRLLLATMESMNGGKLYSNAYLNDLAGCIKTLRYCAGWADKIQGRTIPIDGNFFTYTRHEPIGVCGQIIPWNFPLVMLIWKIGPALSCGNTVVVKPAEQTPLTALHVASLIKEAGFPPGVVNIVPGYGPTAGAAISSHMDIDKVAFTGSTEVGKLIKEAAGKSNLKRVTLELGGKSPCIVLADADLDNAVEFAHHGVFYHQGQCCIAASRIFVEESIYDEFVRRSVERAKKYILGNPLTPGVTQGPQIDKEQYDKILDLIESGKKEGAKLECGGGPWGNKGYFVQPTVFSNVTDEMRIAKEEIFGPVQQIMKFKSLDDVIKRANNTFYGLSAGVFTKDIDKAITISSALQAGTVWVNCYGVVSAQCPFGGFKMSGNGRELGEYGFHEYTEVKTVTVKISQKNS",0.69 ± 0.03 µM,0.155 µmol/min/mg,200 ± 14 µM,1.06 ± 0.02 µmol/min/mg
